This assay deals with Dob3, ferritin-like diiron oxidase/oxygenase (FDO) of the dob gene cluster (Nocardia ninae). Briefly: SEC; size-exclusion chromatography of purified Dob3; column and buffer not told in the text shown (Supplementary Figure 19). (In gel filtration, larger molecules generally elute earlier.)

As usually defined, the stoichiometry N is a count of units in the complex or per binding partner.

In the case of “Dob3, ferritin-like diiron oxidase/oxygenase (FDO) of the dob gene cluster (enzyme)”, the stoichiometry N was 2.

These data come from paper doi:10.1101/2025.05.24.655970.
